Experimental data as given in the supplement of paper PMC9170038.

System: MS2 coat protein
Assay: apparent KD of MS2 coat protein; higher = weaker reporter binding
Conditions: Eterna round: R107
Procedure: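 RNA-MaP round R107: designed RNA switches with theophylline, tryptophan, arginine or FMN aptamers are transcribed on-chip within common flanks. They are titrated with SNAP-549-labelled MS2 coat protein in RNA-MaP buffer (100 mM Tris pH 7.5, 80 mM KCl, 4 mM MgCl2), without ligand or with the indicated ligand. Median apparent KD per design.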

[1] = input ligand: theophylline 20 uM
[2] = input ligand: theophylline 2 mM
[3] = input ligand: tryptophan 2.4 mM

| Sequence | apparent KD of MS2 coat protein (input ligand: arginine 13.2 mM) | apparent KD of MS2 coat protein (input ligand: none) | apparent KD of MS2 coat protein [1] | apparent KD of MS2 coat protein [2] | apparent KD of MS2 coat protein [3] |
| --- | --- | --- | --- | --- | --- |
| AAAACAAUCUGAAGGAGCGUCACAUGAGGAUCACCCAUGUACAUGAGGAUCACCCAUGUGUGACAGGUAGGUCGCAGAAAAUACC [Exclusion Arginine B GF 3] | 111 nM | 216 nM | 183 nM | 219 nM | 200 nM |
| AAAACACAUGAGGAUCACCCAUGUCAUGAUACCAGUCCACAUGAGGACCCUUGGCAGCAUAAAAUGGGUAACAUGAGGAUAACCC [AstrosEXyTheA#4] | 26.5 nM | – | 48.1 nM | – | 23.4 nM |
| AAACAUGAGGAUCACCCAUGUUCAAUAGAUACCAGUGAUACGGUGCACCCUUGGCAGCUGUUGCUGAGUGAUGGUUCCCUCGGUA [#24 SameState-TheophyllineA] | 19.9 nM | – | 32.9 nM | – | 27.1 nM |
| AAACGUUGCUGCGAUACCAGACAUGAGGAUCACCCAUGUACCAAGGUAAAGAAAUAACGUGUCCCUUGGCAGCGCAGCAACGAAA [MAT - Exclusion Theophlline B - Mod of Eli - D12] | 8.7 nM | 10.2 nM | 16.1 nM | 143 nM | 10.6 nM |
| AAACUUCGCAUAGGAAAACUAUGUGAAGAUCGAGGACCGGUACGGCCGCCACUCGUCCUCAACAUGAGGAUCACCCAUGUAAUAA [Mat - Exclusion - Trytophan A - D3] | 22.8 nM | – | 23.7 nM | 23 nM | – |
| AAAGCCUUGCCCGGUGUUCCGAAAGUGGAAGGAGCGCACAUUGGUGCAGGUAGGUCGCCACAUGAGGAUCACCCAUGUCUAGGCU [Isbeat] | 42.5 nM | 34.1 nM | 107 nM | 135 nM | 11.3 nM |
| AAAGGAAGGUAAAAUAAAACUACAUGUGAAGGAGCGCCCGAAAGGGCAGGUAGGUCGCACAUGAGGAUCACCCAUGUCCUUCCAA [ArgEX 6 #SwitchBubble] | 206 nM | 319 nM | 315 nM | 439 nM | 293 nM |
| AAAUAAAUAACUGAUACCAGUGGACUGACAUGAGGAUCACCCAUGUUGGGUUUUGUUGUCCACCCUUGGCAGCGGGCAUAUAAAA [#25 Exclusion-TheophyllineB] | 23.4 nM | – | 38.4 nM | – | 26.8 nM |
| AAAUAAAUACAUGAGGAUCACCCAUGUGAAGGAGCGGCCGUUAGGCCAGGUAGGUCGCACAUGAAAGGGAAGCGAAAGAAAUAAU [MAT - Exclusion Arginine A - Mod of Eli - D7] | 12.2 nM | 18.1 nM | 25.9 nM | 19 nM | 19.2 nM |
| AACAGUAUUAUAGAUACCAGCAGGUCAUAAGACAUGAGGAUCACCCAUGUGAAUGAGGUAUGCCCUUGGCAGCUAUGAGGUCCUC [theeternabot_sameState_MS2_Theo_B_18] | 113 nM | – | 185 nM | – | 126 nM |
| AACAUGAGGAUCACCCAUGUAUGUUCCGAAGGAGCGCCACAUGAGGCAGGUAGGUCGCGGGUACAUGAGGAUCACCCAUGUGUCA [Exclusion Arginine A 3] | 56.5 nM | 113 nM | 170 nM | 128 nM | 174 nM |
| AACAUGAGGAUCACCCAUGUCCCAUGUGAACGAGGACCGGUACGGCCGCCACUCGAAUGAGGCGGCACAUGAGGAUCACCCACAU [whbob_SS_trypto A_2s11] | 95.7 nM | – | 233 nM | 237 nM | – |
| AACAUGAGGAUCACCCAUGUCCUCAUGAUUCGAGGACCGGUACGGCCGCCACUCGGUCCUCGCGAGGAGGAGUCAAAGACUCCAA [Omei Trp A SS A v2] | 360 nM | – | 361 nM | 968 nM | – |
| AACAUGAGGAUCACCCAUGUCCUCGUGUUCCGAGGACCGGUACGGCCGCCACUCGGUCCUCGCGAGGAUGGUCAAAGACUAUCCA [Omei Trp A SS B v3] | 724 nM | – | 378 nM | 953 nM | – |
| AACAUGAGGAUCACCCAUGUCUGAACUGAAGGAGCGCUAAAUAAGGCAGGUAGGUCGCGGAAUUUUGUGUACAUAUGUAUAUGGG [9.H] | 21.7 nM | 25.9 nM | 32.2 nM | 35.8 nM | 23.8 nM |
| AACAUGAGGAUCACCCAUGUGUCCUCGAAACGAGGACCGGUACGGCCGCCACUCGACGUAUGUUGACGAAAAGUCAGCAUACGAA [Mat - Exclusion - Trytophan A - D12] | 112 nM | – | 310 nM | 330 nM | – |
| AACAUGAGGAUCACCCAUGUGUCCUCGAAACGAGGACCGGUACGGCCGCCACUCGGCGUAUGUUGACGAAAAGUCAGCAUACGCA [Mat - Exclusion - Trytophan A - D11] | 81.8 nM | – | 209 nM | 255 nM | – |
